In this data set the target is T1, TRF1 (MTRF12) (Mus musculus, UniProt P70371 SEQ:1-421).
T1 sequence: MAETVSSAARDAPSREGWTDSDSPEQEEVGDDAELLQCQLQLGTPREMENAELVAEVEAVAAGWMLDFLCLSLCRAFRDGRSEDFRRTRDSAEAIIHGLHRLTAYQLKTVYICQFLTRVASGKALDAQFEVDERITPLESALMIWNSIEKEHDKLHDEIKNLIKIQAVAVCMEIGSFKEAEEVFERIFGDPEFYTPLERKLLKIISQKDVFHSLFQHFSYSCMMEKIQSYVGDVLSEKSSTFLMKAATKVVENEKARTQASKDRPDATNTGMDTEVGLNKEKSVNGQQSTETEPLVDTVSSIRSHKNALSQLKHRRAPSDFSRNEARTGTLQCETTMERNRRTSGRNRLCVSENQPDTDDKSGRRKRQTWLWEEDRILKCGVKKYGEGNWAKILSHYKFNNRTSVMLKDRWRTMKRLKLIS
The data set is described as follows: EMSA; reticulocyte lysate. The settings on record: chain copies: 2; label: labelled. The source says:
Figure 6: FIG. 6 depicts a gel-shift experiment showing telomeric repeat binding activity of protein encoded by the mouse MTRF12 cDNA. The cDNA was transcribed using T3 RNA polymerase and translated in a rabbit reticulocyte lysate. The probe is a $(TTAGGG)12$-containing restriction fragment. Competitions were done with plasmids containing long arrays of telomeric DNAs with the indicated sequence. Gel-shift methods are as described by (Zhong et al, 1992). […] Shown is two interphase nuclei in which the anti-FLAG antibodies detect a speckled TRF pattern (green) against the background of DAPI stained DNA (blue). […] Shown is a metaphase spread in which the anti-HA antibody detects TRF at each chromosome end (green). The DNA is stained with DAPI (blue).
The mouse cDNA (MTRF12) contained its own initiator codon and was transcribed and translated without further modification using the T3 promoter in its pBluescript vector. Similar to the human cDNA, a ~60 kD protein was synthesized that bound TTAGGG repeats but not TTGGGG or TTAGGC repeats (FIG. 6).

B1: (TTAGGG)12 restriction fragment (dsDNA)
DNA 1: GTACCCGGGGATCGTGACTCTAGAGGGGCCCTAACCCTAACCCTAACCCTAACCCTAACCCTAACCCTAACCCTAACCCTAACCCTAACCCTAACCCTAACCCTAACCCGGGTCGAATTCGATCTCTAGAGTCGACCTGCAGGCATGC
DNA 2: GCATGCCTGCAGGTCGACTCTAGAGATCGAATTCGACCCGGGTTAGGGTTAGGGTTAGGGTTAGGGTTAGGGTTAGGGTTAGGGTTAGGGTTAGGGTTAGGGTTAGGGTTAGGGTTAGGGCCCCTCTAGAGTCACGATCCCCGGGTAC
Take B1: the binding result is given as “binds”.

These data come from US6297356, “Telomere repeat binding factors and diagnostic and therapeutic use thereof” (The Rockfeller University).
